Results: the supplement of paper PMC9170038

Assays:
MS2 coat protein [1] = assay: apparent KD of MS2 coat protein, switch OFF state (with FMN for OFF switches, without FMN for ON switches); designed switch direction (-1 OFF switch, 1 ON switch): -1; higher = weaker reporter binding; conditions: FMN input: 0 or 200 uM; Eterna round: R93 (includes R88 designs)
Summary of the method: (§1)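 On-chip transcription from Illumina sequencing clusters produced the designed RNA switches. These were titrated with SNAP-549-labelled MS2 coat protein (twofold steps, 0.7 or 1.5 nM to 3 µM) in 100 mM Tris-HCl pH 7.5, 80 mM KCl, 4 mM MgCl2, with or without constant ligand. The apparent KD given is the per-design median of normalised cluster binding-curve fits.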

MS2 coat protein [2] = assay: apparent KD of MS2 coat protein, switch ON state; designed switch direction (-1 OFF switch, 1 ON switch): -1; higher = weaker reporter binding; conditions: FMN input: 0 or 200 uM; Eterna round: R93 (includes R88 designs)
Summary of the method: as §1

| Sequence | apparent KD of MS2 coat protein (MS2 coat protein [1]) [nM] | apparent KD of MS2 coat protein (MS2 coat protein [2]) [nM] |
| --- | --- | --- |
| AAGAAGCUAGGAUAUACAUGAAAGAAAGAAAAGAAAAGAAAACAUGAGGAUCACCCAUGUAGAAGGAGCUAGAA [EteRNA is fun!] | 32.5 | 33.1 |
| AAGAAGCUAGGAUAUACAUGAGGAUCACCCAUGUAAAAGAAAGAAAGGGAAAAGAAAAGUAGAAGGAGCAAGAA [Netjerikheperre-setpenamun Siamun-meryamun] | 18.1 | 12.2 |
| AAGAAGCUAGGAUAUACUAACGAAACUAAUGCAUAGAUAAAACAUGAGGAUCACCCAUGUAGAAGGAGCAGAAU [JR_Exc002_Sub014] | 20.6 | 21.6 |
| AAGAAGCUAGGAUAUACUUGGGCAACAAAUAAACUAAUAUAACAUGAGGAUCACCCAUGUAGAAGGAGCAGAAA [JR_Exc002_Sub205] | 39.8 | 39.7 |
| AAGAAGGCAGGAUAUACAUGAGGAUCACCCAUGUAAAAGAAAGAGGGAAAAGAGAAAAGUAGAAGGGCCAAGAA [Setepenre-meryamun Alexander III] | 75 | 27.8 |
| AAGAAGGGAGGAUAUACAAAAUAAAAGAAAAGAAAGAAAGAACAUGAGGAUCACCCAUGUAGAAGGCCUAAGAA [Merneferre Ay I] | 8.74 | 23.8 |
| AAGAAGGUAGGAUAUACAUGAGGAUCACCCAUGUAAAAGAAAGAAAGGGAAAAGAAAAGUAGAAGGACCAAGAA [Usermaatre Amenemope] | 27.4 | 23.5 |
| AAGAAGGUAGGAUAUACUAAAGAAAUAAAAAGAAAGAAAGAACAUGAGGAUCACCCAUGUAGAAGGGCCAAGAA [Merkare] | 35.2 | 51 |
| AAGAAGUAAGGAUAUCGAAGACUGUCGAAAAGACAGUCGAACGAGAAGGUACAUGAGGAUCACCCAUGUGAGAA [Opal 24] | 41 | 25.5 |
| AAGAAGUAAGGAUAUGCUGCUCGUCACAAAAGUGAUGAGUAGCAGAAGGUACAUGAGGAUCACCCAUGUAAAUA [Opal 32] | 17.2 | 25.3 |
| AAGAAGUCAGGAUAUACAAAAUAAAAGAAAAGAAAGAAAGAACAUGAGGAUCACCCAUGUAGAAGGGACAAGAA [Nerikare] | 37.4 | 57.8 |
| AAGAAGUCAGGAUAUACAUGAGGAUCACCCAUGUAAAAGAAAGAAAAGGGAAAGAAAAGUAGAAGGGACAAGAA [Menkheperre Thutmose III] | 208 | 22.5 |
| AAGAAGUCAGGAUAUCGAAGACAGACGAAAAGUCUGUCAAACGAGAAGGGACAUGAGGAUCACCCAUGUAAGAA [What have we learned so far? 64% 1] | 60.4 | 44.9 |
| AAGAAGUCAGGAUAUGCCAAAGAUCACGAAAGUGACAAAGGGCAGAAGGGACAUGAGGAUCACCCAUGUAAAGA [Opal 3] | 62.4 | 54.7 |
| AAGAAGUCAGGAUAUGCCAAAGAUCACGAAAGUGACUAAGGGCAGAAGGGACAUGAGGAUCACCCAUGUAAAGA [Opal 4] | 52.8 | 42.9 |
| AAGAAGUCAGGAUAUGCCAGAGAUCAAGAAAGUGACGAAUAGCAGAAGGGACAUGAGGAUCACCCAUGUAAAGA [Opal 9] | 35.9 | 43.5 |
| AAGAAGUCAGGAUAUGCUAAAGAAAUAAAAAUAAAUAAAGAACAUGAGGAUCACCCAUGUAGAAGGGACAAGAA [Sewadjkare Hori] | 33.3 | 72.1 |
| AAGAAGUCAGGAUAUGCUGCUCGUCACAAAAGUGAUGAGUAGCAGAAGGGACAUGAGGAUCACCCAUGUAAACA [Opal 34] | 47.2 | 37.6 |
| AAGAAGUCAGGAUAUGGUGCUCGUCACUUGCGUGAUGAGUACCAGAAGGGACAUGAGGAUCACCCAUGUAAAGA [Opal 21] | 60 | 47.1 |
| AAGAAGUGAGGAUAUACAUGAGGAUCACCCAUGUAAAAGAAAGAAGGGAAAGAGAAAAGUAGAAGGCACAAGAA [Usermaatre-setepenamun Osorkon III] | 31.3 | 28.5 |

| Sequence | apparent KD of MS2 coat protein (MS2 coat protein [1]) [nM] | apparent KD of MS2 coat protein (MS2 coat protein [2]) [nM] |
| --- | --- | --- |
| AAGAAGUGAGGAUAUCGAAAAGAAAAGAAAAGAAAAGAAAACGAGAAGGCACAUGAGGAUCACCCAUGUAAGAA [Setutre Darius I the Great] | 41 | 28.1 |
| AAGAAGUGAGGAUAUCGAAGACAAAAAAAAAAAAAGUCGAACGAGAAGGCACAUGAGGAUCACCCAUGUAAGAA [shorter stack] | 40.3 | 37.7 |
| AAGAAGUGAGGAUAUCGAAGACAGACGAAAAGUCUGUCAAACGAGAAGGCACAUGAGGAUCACCCAUGUGGAAG [Mat - Exaclusion 4 - Eli mod - D79] | 36.8 | 30.6 |
| AAGAAGUGAGGAUAUCGAAGACUGUCGAAAAGACAGUCGAACGAGAAGGCACAUGAGGAUCACCCAUGUGAGGA [Marsurpial 65% 2] | 50.1 | 26.2 |
| AAGAAGUGAGGAUAUGCUGCUCGUCACUUGCGUGAUGAGUAGCAGAAGGCACAUGAGGAUCACCCAUGUGGGAA [Modifying Chris (69%) Late G segment, early G segment 3] | 110 | 89.1 |
| AAGAAGUGAGGAUAUGCUUGUCGUCACAAAAGUGAUGACGAGCAGAAGGCACAUGAGGAUCACCCAUGUAAAGA [Opal 27] | 49.9 | 37.1 |
| AAGAAUGCAGGAUAUACAAAAUAAAAGAAAAGAAAGAAAGAACAUGAGGAUCACCCAUGUAGAAGGGCAAAGAA [Menwadjre Sihathor] | 28.2 | 30 |
| AAGAAUGCAGGAUAUACAUGAGGAUCACCCAUGUAAAAGAAAGAGGGAAAAGAGAAAAGUAGAAGGGCAAAGAA [Cleopatra III] | 37.6 | 26.1 |
| AAGAAUGGAGGAUAUACAUGAGGAUCACCCAUGUAAAAGAAAGAAAAGGGAAAGAAAAGUAGAAGGCCAAAGAA [Sekhaenre/Akhenre Merenptah Siptah] | 41 | 28.5 |
| AAGACGUAAGGAUAUAUUAUGGGACAAUGAAGGAAGAUAAAACAUGAGGAUCACCCAUGUAGAAGGUGCAAAGA [JR_Exclusion2_Sub3] | 32.8 | 40.3 |
| AAGACUACAGGAUAUACAUGAGGAUCACCCAUGUAACUGACGGAUAGAUGACGGAGAAGUAGAAGGGUAGUCCA [Ruby 39] | 46.9 | 36.9 |
| AAGAGACAUGAGGAUCACCCAUGUGAGGAUAUGACGUAAAUAAAGAAAGAAGAAAUCGUCAGAAGGCACACCAA [55%, Disencluded 2, 4] | 75.8 | 48.4 |
| AAGAGGCUAGGAUAUACAUAUCUGAUGACUCAUCCUAAAACACAUGAGGAUCACCCAUGUAGAAGGAGCGAAUG [Anledi] | 16.5 | 19.2 |
| AAGAUGUCAGGAUAUGCUUGUCGUCACAAAAGUGAUGACGAGCAGAAGGGACAUGAGGAUCACCCAUGUAAAGA [JL eternac mod 3] | 303 | 148 |
| AAGCCACAUGAGGAUCACCCAUGUAAGGAUAUGAACGAAAUAAAAUAAAAAUAAAAGUUCAGAAGGUACAAAAA [Mat - Exclusion 1 - Eli mod - D23] | 21.9 | 20.2 |
| AAGGGACAUGAGGAUCACCCAUGUCAGGAUAUGCAAAUAACAAACAACAAACAACAAAGCAGAAGGGACAAAAA [Mat - Exclusion 1 - Eli mod - D53] | 24.8 | 27.9 |
| AAGGGACAUGAGGAUCACCCAUGUGAGGAUAUGCUAUGGAAAAUAAAAAAUAAACAUAGCAGAAGGCAUAAAAA [Mat - Exclusion 1 - Eli mod - D37] | 72.3 | 64.8 |
| AAGGGACAUGAGGAUCACCCAUGUGAGGAUAUGCUAUGGAAAAUAAAAAUAAAACAUAGCAGAAGGCAUAAAAA [Denovo 9] | 44.8 | 60.1 |
| AAGGGACAUGAGGAUCACCCAUGUUAGGAUAUCGGAAAAGGAAAAAAAAAAAAGAAGACGAGAAGGGACACCAA | 48.8 | 59.5 |
| AAGGUACGAGGAUAUACAUAGAUACAGACACAUGUGGAUGUACAUGAGGAUCACCCAUGUAGAAGGCGUAUAUA [AJ 21] | 101 | 64 |
